Results on one variant are retold here after IntAct's records for PubMed 24130456.

First the molecules themselves.
B1: Ribosomal RNA-processing protein 7 (Saccharomyces cerevisiae), P25368 (parent)
chain: MGIEDISAMKNGFIVVPFKLPDHKALPKSQEASLHFMFAKRHQSSNSNESDCLFLVNLPLLSNIEHMKKFVGQLCGKYDTVSHVEELLYNDEFGLHEVDLSALTSDLMSSTDVNEKRYTPRNTALLKFVDAASINNCWNALKKYSNLHAKHPNELFEWTYTTPSFTTFVNFYKPLDIDYLKEDIHTHMAIFEQREAQAQEDVQSSIVDEDGFTLVVGKNTKSLNSIRKKILNKNPLSKHENKAKPISNIDKKAKKDFYRFQVRERKKQEINQLLSKFKEDQERIKVMKAKRKFNPYT
partner: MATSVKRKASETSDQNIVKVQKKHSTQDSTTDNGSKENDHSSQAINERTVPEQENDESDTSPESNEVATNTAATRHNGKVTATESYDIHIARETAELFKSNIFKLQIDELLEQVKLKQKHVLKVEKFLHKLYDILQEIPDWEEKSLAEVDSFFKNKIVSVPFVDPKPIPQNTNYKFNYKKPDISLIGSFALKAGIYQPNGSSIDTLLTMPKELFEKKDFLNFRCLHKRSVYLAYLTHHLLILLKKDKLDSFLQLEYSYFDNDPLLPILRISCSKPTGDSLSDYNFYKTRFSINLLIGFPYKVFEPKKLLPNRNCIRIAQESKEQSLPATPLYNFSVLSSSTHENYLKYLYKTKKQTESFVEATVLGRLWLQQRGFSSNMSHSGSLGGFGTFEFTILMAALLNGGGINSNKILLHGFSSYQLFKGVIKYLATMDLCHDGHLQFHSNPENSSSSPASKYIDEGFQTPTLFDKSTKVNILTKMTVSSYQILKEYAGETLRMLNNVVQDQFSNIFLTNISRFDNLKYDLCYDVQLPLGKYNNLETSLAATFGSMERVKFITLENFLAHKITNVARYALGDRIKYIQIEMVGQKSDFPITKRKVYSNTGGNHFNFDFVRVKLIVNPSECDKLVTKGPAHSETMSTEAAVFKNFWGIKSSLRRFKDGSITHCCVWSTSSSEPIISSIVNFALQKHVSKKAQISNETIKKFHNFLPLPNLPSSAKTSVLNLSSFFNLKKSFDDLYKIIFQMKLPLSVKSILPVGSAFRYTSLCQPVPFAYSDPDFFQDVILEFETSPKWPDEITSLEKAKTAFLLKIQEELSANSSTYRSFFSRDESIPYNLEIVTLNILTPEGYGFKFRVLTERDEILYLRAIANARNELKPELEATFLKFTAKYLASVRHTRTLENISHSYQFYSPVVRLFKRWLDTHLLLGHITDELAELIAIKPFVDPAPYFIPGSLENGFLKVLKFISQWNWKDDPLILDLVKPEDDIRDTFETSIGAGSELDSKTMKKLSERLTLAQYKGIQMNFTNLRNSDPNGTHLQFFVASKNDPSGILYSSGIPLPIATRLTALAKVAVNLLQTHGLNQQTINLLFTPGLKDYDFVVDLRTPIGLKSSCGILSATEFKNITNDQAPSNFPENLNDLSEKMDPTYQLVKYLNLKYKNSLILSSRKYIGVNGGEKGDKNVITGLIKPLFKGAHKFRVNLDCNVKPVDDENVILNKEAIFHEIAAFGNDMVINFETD

In this experiment the parent is B1. As to conditions: with utp22_yeast UTP22, P53254.
In the case of MGIEDISAMKNGFIVVPFKLPDHKALPKSQEASLHFMDAKRHQSSNSNESDCLFLVNLPLLSNIEHMKKFVGQLCGKYDTVSHVEELLYNDEFGLHEVDLSALTSDLMSSTDVNEKRYTPRNTALLKFVDAASINNCWNALKKYSNLHAKHPNELFEWTYTTPSFTTFVNFYKPLDIDYLKEDIHTHMAIFEQREAQAQEDVQSSIVDEDGFTLVVGKNTKSLNSIRKKILNKNPLSKHENKAKPISNIDKKAKKDFYRFQVRERKKQEINQLLSKFKEDQERIKVMKAKRKFNPYT [F38D], the “effect of a mutation on the interaction” value is listed as “disrupting interaction strength”.
